Measurements published in article PMC7148328.

What follows are sequences tested against T1, His-Dbv6 (Nonomuraea gerenzanensis) (UniProt Q7WZ85) (assay: EMSA). Conditions: 12.5 mM Tris-HCl pH 7.5, 10% glycerol, 62.5 mM KCl, 0.75 mM DTT, 5 mM MgCl2, 20 uL, 4 C; 2.8-14 ug Dbv6 (legend: 0.5-2 mM), 100 ng DNA (legend: …).
T1 sequence: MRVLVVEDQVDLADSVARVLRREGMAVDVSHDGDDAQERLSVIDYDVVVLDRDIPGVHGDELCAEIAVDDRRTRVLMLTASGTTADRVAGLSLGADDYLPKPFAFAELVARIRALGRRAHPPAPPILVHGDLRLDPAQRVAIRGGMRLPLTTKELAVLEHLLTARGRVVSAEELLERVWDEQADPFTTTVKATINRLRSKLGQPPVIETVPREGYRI

Sequence	binding
CATTCGTGTCGCCGTCTCGATCGGGGGCTGTCAGTCTGACACCATAGCTCGCGTCCGGTCGATCCTCGAGTTGCCGTCGGGGACGGGCGGGACGTGCCAGCCGTGGAAGCGCAGTGCCTCGGTGAGCCGGCCGGTGTCCTCCGGGCGCACGGAGACCTCGACCA (double strand) [updbv6]	no binding
CCTTCAGCAAACCTCCGAACGGCGACACTATGGCCATGCGGGACTCCTCTCACACGCGCACGCAAGTCAGCGACCTCAATCGTGCTGAGCGGAGCCGATGTCCACGAGTGGGTCCAACTGAACAGTTCGCGCGCTTGGACGCGTTCACCGGTGGTGGTGACCAAGCGTTCACCTGGAC (double strand) [updbv23]	binds
GCAGGAATGGGAAAGGATCTTGCGCGGAGTGCCGCCGCATTGGGGCACCGTTGTCGCGAGATGCGCCAGGGATCATGCCCAGATCTGGGCAGCGTTCGCGGATCGCCTGGAGGGGCGGGCGACCGATCTGGCCGCTGGATGAGCACGAGTGGATGAGCCGGGCGGCCGTATGTAGAGCGACGGGACCAGGACCAGATCAGGCACACGGCAAACCAAGTCGACGAACCGCTTGGGGGACGAGCAAGAGTGCTGTTCGGGCGAGATCGTGAACTGAAGAGTCTGACGAGGTTGCTCGATTC (double strand) [updbv3]	binds
GCAGGTCGGAAGGGACATCTGTTCGGTGGGTGCCGGGCGCTCCATGGCAACTCCCGCGTCATCGAGGTGCTGCGCAGCCCTCGAAGGTCGCACCCGCGGACGAGAGCCTGCTTGATCGCAAGCGTGCTCAACGGACTCGATGTCTACAAGCCGGTCCAGGTGAACGCTTGGTCAC (double strand) [updbv24]	binds
GCATCGGTCTTATCCGAAACTAGGGGGGTGGATGTCCGGGATAGGGGGTGGTTCGACCTGCACAGCCTCCTTTAACCTTCCGGAGGAAGGCCTAACCGAAAGTCGGAGTGATCGGAATGCTAACGGGAAGCGTTCTGCAATTCGATGAGGTAGACGGCTACGGATTCGCGGCGACAGCGTCCAATTCTTTGCCGCGTGGAGTTGCCGAAGAAAAGAGGATGCGACG (double strand) [updbv4]	binds
TGAAGGCGACGATCAACCGGCTGCGCTCGAAGCTCGGCCAGCCGCCGGTGATCGAAACCGTCCCGCGCGAGGGATATCGCATCTGATCCGCGCGGTCACAGAGCGGTCACACGTTCTCTGACCCTCGTGTCACCTTCTGCTCCGTAGAACTGGTGTCAGATCACCAGACTGGAGGAGAGGGATGAGGA (double strand) [updbv7]	binds
